The data set is described as follows: label from the status in PepcDB records.

Turning to “MSHHVQREIRYNFEFDHRIRACFIGAGGHAYRNVYPALRYAPVELSGICDLDIGRAEKFAKLFGAGKAYTDHREMLEQEKPELVFLVTAYHPDGRVQATDLALDALASGAHVWMEKPTAASLEDIERLQAASAAAGRMVMTGLKKTFFPTIEKLRDLIGSPGFGRLTSINVRYPQSLPGQEDRADLVKMQSFLDHIYHPGAILHFLGGEIERAGYEWEALTGATITSLRFHSGAIGTLHLAAGQSGSSIFERVEIIGEGANAIVENGSRLTYFRKADLPSYGRAASFIQPDENAALFYEPEHSLGQLYNNNLFYLGYVPEILHLTDAILSGTPISRGTLEIAREIMKLFEFYRRTDAGVTTNL”, the protein production entry is recorded as “failed”.

Take “MSIDIQLFYLPLHTNNPLILNKQMKLRNVSAGIVLCLTMVSCIQDEALNVEAAIDGCSGTNIQLSTINPSSKTASIYVSKSTDLSALEIKFTLPDGASIEPVNAIANDAPPKYDFSTSQIPITPEQTLEQYQRKFRVTSESETTEAVYTITVIKSELPTNFHFENLVDGSSDYHELYEFNQQQGETLQWASGNPGFKLTGMAKSPFDYPTLQTEGYIGKGIRLETKSTGDFGEKVKMPIAAGNLFIGTFIVKDALRDAKAATKFGFPFFKHPKTLKGYYKFQPGTVYISGTDENRKPIIDPSMEGKDKGDIYAVLYEADDVEDFLDGYNSLNSNKIIALARIPSIEKTSEWKQFELPFEYKKAIDESALKEGKYKLAVVFSSSINGAEFKGSVGSTLWIDEVTIQCKEDNE”: the protein production entry is “failed”.

Take “MSIDWAALGSVFGVSLVVTVGLVGLFTLGIVGLTKKESAEGGSAALATTGAYACFAACAAAVAYGIYLIVA”: the protein production entry is reported as “failed”.

Take “MSIEATLLARCESKCELCSSESPLTAYAVPPHGNVTVDTAIMVCDKCHSEIEEPKDINHWRCLNESMWSQVPAVQVTAWRQLTRLNSESWAQDALDMMYMEEEQKNWAMTGMSADDKTVDCNGTELKKGDDVTVIKDLPVKGTNQVIKQGTVIRGISLGDDPKLISGKANGGQSMYVIAEYCRKKLEHHHHHH”: the protein production entry is recorded as “failed”.

With “MSIEKKVGFFFIAGLVLLGVMLELGEKWNPFQKAIPYKTYLSSTTGLKLGDPVRLAGVEVGKITKIAIADSRVEVAFEVKPGTAIKADSVATIRLTNLLGGQFLGLSFGSPDAPVLPPGSAVKSRETANIDVIVDNVGDLAKDAKVLIKDLTVNQKEVFQKVSSMLDENRGNLRGAIENMNSITTKMDRGQGSLALLLNDKSLYRNTNELAASMKNVTAKIEKGEGSLGKFVNDDAFYRDAKGAVANLNDGAKDIKEIAAKINRGEGSVGKLVNDESLYNELRDASKNVGEVAKKINNGQGTLGKLVNDDTLYRDTTAAMKKLDKATEGLSDTGPISVIGSMVGTLFLEHHHHHH”, the protein production result is listed as “not failed”.

For “MSIEPDGTVNRPEENIHLLQLHDSPVMRWLYLSIGMTALFMGILGIFLPILPTTPFILLAAGCFARSSERFHSYLLNHRIAGPIIREWCEYRSVARHVKRWAYLVMALSFGSSILIVSSWWLKGMLALLAMILFTFIWRLPVRDQSR”, the protein production result is “failed”.

Regarding “MSIFTAAMIALVYWISQAKVWYGFSIMRMPLSIAPIMGLIFNDMPTALSVGATLQMIYIGSIAPGGNPPADEGLASCIAIPIALTAGIKPEIAISLAIPLGLLGVVLENVRKTLNTTFIHMADRYAEKGDIKGIQRAATIYPLLLAFPMRFVPVFIACLYGPDAIASFVNLLPAWSTNGLAIAGNILPALGFAITIIVIGKKQYIPLFIIGFFLVTYSGLNTIGISIFGLCAVLLYMQSQNTKGTKNG”, the protein production result was “failed”.

Take “MSILHTVNKSPFERNSLESCLKFATEGASVLLFEDGIYAALAGTRVESQVTEALGKLKLYVLGPDLKARGFSDERVIPGISVVDYAGFVDLTTECDTVQAWL”: the protein production entry was “not failed”.

“MSILKVIKQKWVALGALLGSGALVGLSTNLAKVAYGQDLAPFPFLTWSLAGATLILGSISFLTKQTPPTNTGAIKYYFIAGFFSVAGSNLILFSAVSHVGVSFVVLVISLTPIFTYIAALALGMEIFSRWRVASVIFSLAGTALLVTAKLSLPETNHLWILITLIGPVLLASGNIYRTSHWPKGAKPESLAPGMLLAATATLVLAAISIQGVSLFALFNTENIGLIVLQSIIFSGQFLLLFVLQKAGGPVFLSLTGAVSAAFGIPFAMALLDEPMLPALAPSALLIVTGIIFMMKEQAISNA”: the protein production result is reported as “failed”.

With “MSILTIILIVLLVILLFKVGLSILRFLISVGIVLLCIYLGYQGVLWLFEHFQNFSGFIQ”, the protein production result is on record as “failed”.

Turning to “MSIMKDPNHSPHSGGMLLGFIGVAIFSQTLPFTRMAVAELDATFVALGRAVIAAALALALLAMRGALASGRRPRGGQWLRLAVTALGVVVGFPVFSSLAMREVPSGHGAIVIGLLPLATAVFAAWFGNERPSLGFWLSALAGSALVVAFALWQGAGGLQHADWYLFLAVVLGALGYAEGGKLSRELGGLETISWALVVSLPVLAPVVAWLGLEHAASIAAASPRAWLGMAYVSVFSMFIGFLFWYAGLAKGGVARVGQIQLLQPFLTLAGGALILAEPLDAATVAFAVAVIAVVALGRRAAVRNTAPAMPLASAAEEAPPILPGRLH”, the protein production entry is recorded as “failed”.

With “MSINIDSGQDSDQEHDDVMYPQVLPFVLIHAGCLAAIWSGVSWQAVAICVALYWLRMFGITAGYHRYFSHRAYATSRAFQFILAFLAQSSAQKSVLWWAAKHRHHHLHSDTAQDVHSPRHKGFVYSHLGWIFYRQHDATDLVKVSDLASYPELMWLHRLELLPAVVLAGLCFLIAGWSGLVVGFMWSTVVLYHATFCINSLAHVHGRRRYVTGDDSRNNWLLALLTMGEGWHNNHHAYQASARQGFYWYEVDLTYYALVALSWLGIVWDLKLPPRQVLRNEHRLGSRVVKQAAEQLAARFDPEHIALAIRTSIHETELSVRDALSLLQHRADLRLSSMPTREQLLAEAQRMFAKTISLDDIVDRAYELLHDSVGFLLATPALSANTNAKSGI”, the protein production result is on record as “failed”.

On to “MSINIISIVSIIIWILLITELIKPSKEQNGRKIVTLVTAGSASTLILTVSFIQNIPFWN”, for which the protein production entry was “failed”.

As to “MSINLQLETPRLLLREFQNSDKVAFAAYRSDPGTAKYQSWDTPYSEAQAEAFIESLQHLTSSILGEWYQLAIELKSTRQIIGDCAFCILAEDGKQGEIGFTLARKYQGNGYGTEAVIFLLNYLFNHLNLHRVRANCDPENLASIKLLERVGMRLEGRFIKSLWFKNNWVDEMWFAILQDEFTAVNV”, the protein production result is “failed”.

On to “MSINLRSSGCSSPISATLERRLDSEVQTRANNVSFEQTKEKIRKMLEKVELSVSAYDTSWVAMVPSPSSQNAPLFPQCVKWLLDNQHEDGSWGLDNHDHQSLKKDVLSSTLASILALKKWGIGERQINKGLQFIELNSALVTDETIQKPTGFDIIFPGMIKYARDLNLTIPLGSEVVDDMIRKRDLDLKCDSEKFSKGREAYLAYVLEGTRNLKDWDLIVKYQRKNGSLFDSPATTAAAFTQFGNDGCLRYLCSLLQKFEAAVPSVYPFDQYARLSIIVTLESLGIDRDFKTEIKSILDETYRYWLRGDEEICLDLATCALAFRLLLAHGYDVSYDPLKPFAEESGFSDTLEGYVKNTFSVLELFKAAQSYPHESALKKQCCWTKQYLEMELSSWVKTSVRDKYLKKEVEDALAFPSYASLERSDHRRKILNGSAVENTRVTKTSYRLHNICTSDILKLAVDDFNFCQSIHREEMERLDRWIVENRLQELKFARQKLAYCYFSGAATLFSPELSDARISWAKGGVLTTVVDDFFDVGGSKEELENLIHLVEKWDLNGVPEYSSEHVEIIFSVLRDTILETGDKAFTYQGRNVTHHIVKIWLDLLKSMLREAEWSSDKSTPSLEDYMENAYISFALGPIVLPATYLIGPPLPEKTVDSHQYNQLYKLVSTMGRLLNDIQGFKRESAEGKLNAVSLHMKHERDNRSKEVIIESMKGLAERKREELHKLVLEEKGSVVPRECKEAFLKMSKVLNLFYRKDDGFTSNDLMSLVKSVIYEPVSLQEESLT”, for which the protein production result was “failed”.

In the case of “MSIPNHVSTTEVVLLELEILLTIISIGAWGGFVSYLLRKDKTEYNSSHESIKYCLTQIVISCFTSFLLSAIAIEKECSFNIVLLAAGLGGVFASPILKILGRRIKKIIEGNNSD”, the protein production result was “failed”.

For “MSIPTDVVSLQIMAQVYQKKGLQSIFKKTVESLVEHVPYIDWAGIYMYDQLDYKLVAASNFEEDLRWDCNGELKFPIKNNEDKEVGMLIVRTLQPIAFDVTDVSTLETIATAIGQESYAN”, the protein production result is on record as “failed”.

As to “MSIRILPENEIKPSASAFEIPPLLFANPKNLYTRRAKRLRELAKNNPLRDYLEFAAHLVDIQLTLLETAPIGNYAEKLTAYLTENQGQKPLNKQQFARDEKWLELLLALIKQCKPYATGAILTTLEFLEKASYAELNNLADHLLNERYEQVSPDQSVFIWLALSLYWTQLAQQLPRHTQAEIGERHTCPVCGSAPITSVIHLDKTQGLRYLHCALCESEWNMTRAQCSNCDESGDLNYWSFDTVEAPIKAESCGDCHSYLKVLYQEKDPYVEPLADDLASLMLDIEMEQKGFVRSGLNPFLFSIE”, the protein production entry is reported as “not failed”.

With “MSIRLRKTVMSVLLGALLAGNLLPAQADTQDRLPDIGTTAGGTLSINQELAMGDFYVRQLRAGAPLINDPLLSDYINQLGNRLVKQADSVRTPFHFYLIRNDDINAFAFFGGNVVLHSALFRYADSESELASVLAHEISHVTQRHLARSMESQQRSAPLTWVGALGSILLAMANPQLGMAALSGTLAGAQQGMITFTQSNEQEADRIGIQVLQRAGFDPQAMPNFLQKLADQSRYASRPPEMLLTHPLPESRLSDARNRANQMRPTPVQSSQDFLFAKIRTFGMYGSPDRPLNDDLLVQWEKGNVREQLAAKYGRAIQLYQAKKYDEARNVLQPLLSSAPDNPWFLDMMTDIDLGQNRAAQAIARLQNVTGMQANPVLQLNLANAYVEGKQPAAAGKILYRYTYAHPDDPNGWDLLAQTAAAQGQRAEELAARAESLALNGQLDQSIRLLSNASSLVKLGSLEQARYDARIDQLRQLQQRFRQYQKS”, the protein production entry is given as “failed”.

In the case of “MSITATHDTSSKGRHALPALALLLLMTLSGCAARDMGDGTSPSLMERHATGKSLAPDAPGTPQRQGTPAAEAEAHLQRGLAYLAQDRPELAFEHFSRAASLAPEMVEPRLQRARLLVRRGMPNEAAADIEAVLAASPQHARAWELAGMVAFDRGLLDEAEADFTRAITLDPDLASCYAHLGAVHDYKGRPDLARDVYAAALVRFPQSGELHNNLGVAFSMLGDDASALHHFHEAVVLGASSERSWNNMGLALCRLGRFDEAFEAFRNAGGEAAAHNNLGYFFLVNGDASLAVQHLQRAVELEPRYYVRAAENLKRARLAARFAAGGVPVPAAGPQTGGIAGTPVNKAGVLPPATGKGPGTRTTGAGERVIQ”, the protein production entry is listed as “failed”.

For the sequence “MSITRRVRLSVDTCCYEAEIAGILRPQLLKGRMSVREEFDAWAAEGKDRGMEDRHWHTAKHVLARMPVEPGDTVLDLGTGSGYALRALRDTNDAGPCYGLDGSPEMLRNAREYTDDDGIGFLRGDFDALPFATDSIDHVFSMEAFYYASDPPHTLEEIARVLRPGGTANIAVNYYEENVHSHEWQEFIDIEMTRWSADEYREAFREAGLAVAAQDTIPDREVEIPPADTFPTDEFETREAMVERYRELGTLLTVGVATE”, the protein production result is given as “failed”.

Consider “MSIVSISYNQEEYIREALDGFAAQRTEFPVEVIIADDASTDATPRIIGEYAARYPQLFRPILRQTNIGVHANFKDVLSAARGEYLALCEGDDYWTDPLKLSKQVKYLDRHPETTVCFHPVRVIYEDGAKDSEFPPLSWRRDLSVDALLARNFIQTNSVVYRRQPSYDDIPANVMPIDWYLHVRHAVGGEIAMLPETMAVYRRHAHGIWHSAYTDRRKFWETRGHGMAATLEAMLDLVHGHREREAIVGEVSAWVLREIGKTPGRQGRALLLKSIADHPRMTMLSLQHRWAQTPWRRFKRRLSTELSSLAALAYATRRRALEGRDGGYRETTSPPTGRGRNVRGSHA”, for which the protein production result is listed as “failed”.

Values taken from a protein production outcome set (Wang et al. 2014).
